{"source": "patent US20190016816A1", "about": "(APTEVO RESEARCH AND DEVELOPMENT, published 2019)", "binders": {"B1": {"name": "ALG.APV-210 (bispecific antibody)", "chain": "EVQLLESGGGLVQPGGSLRLSCAASGFTFSHGSMYWVRQAPGKGLEWVSSISSGSGSTYYADSVKGRFTISHDNSKNTLYLQMNSLRAEDTAVYYCARSSYYGSYYSIDYWGQGTLVTVSSGGGGSGGGGSGGGGSGGGGSDIQMTQSPSSLSASVGDRVTITCRASQSISSYLNWYQQKPGKAPKLLIYAASSLQSGVPSRFSGSGSGTDFTLTISSLQPEDFATYYCQQYYDNLPTFGQGTKLEIKEPKSSDKTHTCPPCPAPEAAGAPSVFLFPPKPKDTLMISRTPEVTCVVVDVSHEDPEVKFNWYVDGVEVHNAKTKPREEQYNSTYRVVSVLTVLHQDWLNGKEYKCAVSNKALPAPIEKTISKAKGQPREPQVYTLPPSRDELTKNQVSLTCLVKGFYPSDIAVEWESNGQPENNYKTTPPVLDSDGSFFLYSKLTVDKSRWQQGNVFSCSVMHEALHNHYTQKSLSLSPGSGGGGSGGGGSGGGGSPSEVQLLESGGGLVQPGGSLRLSCAASGFTFSSYAMSWVRQAPGKCLEWVSAISGSGGSTYYADSVKGRFTISRDNSKNTLYLQMNSLRAEDTAVYYCARYYGGYYSAWMDYWGQGTLVTVSSGGGGSGGGGSGGGGSGGGGSDIQMTQSPSSLSASVGDRVTITCRASQSISSFLNWYQQKPGKAPKLLIYAASSLQSGVPSRFSGSGSGTDFTLTISSLQPEDSATYYCQQTYGYLHTFGCGTKLEIKR", "notes": "Optimized ADAPTIR scFv-Fc-scFv homodimer with stabilizing disulfide in the 1210 scFv; also called 5T4-CD137 bispecific antibody"}, "B2": {"name": "biotinylated ALG.APV-210 (bispecific antibody)", "chain": "EVQLLESGGGLVQPGGSLRLSCAASGFTFSHGSMYWVRQAPGKGLEWVSSISSGSGSTYYADSVKGRFTISHDNSKNTLYLQMNSLRAEDTAVYYCARSSYYGSYYSIDYWGQGTLVTVSSGGGGSGGGGSGGGGSGGGGSDIQMTQSPSSLSASVGDRVTITCRASQSISSYLNWYQQKPGKAPKLLIYAASSLQSGVPSRFSGSGSGTDFTLTISSLQPEDFATYYCQQYYDNLPTFGQGTKLEIKEPKSSDKTHTCPPCPAPEAAGAPSVFLFPPKPKDTLMISRTPEVTCVVVDVSHEDPEVKFNWYVDGVEVHNAKTKPREEQYNSTYRVVSVLTVLHQDWLNGKEYKCAVSNKALPAPIEKTISKAKGQPREPQVYTLPPSRDELTKNQVSLTCLVKGFYPSDIAVEWESNGQPENNYKTTPPVLDSDGSFFLYSKLTVDKSRWQQGNVFSCSVMHEALHNHYTQKSLSLSPGSGGGGSGGGGSGGGGSPSEVQLLESGGGLVQPGGSLRLSCAASGFTFSSYAMSWVRQAPGKCLEWVSAISGSGGSTYYADSVKGRFTISRDNSKNTLYLQMNSLRAEDTAVYYCARYYGGYYSAWMDYWGQGTLVTVSSGGGGSGGGGSGGGGSGGGGSDIQMTQSPSSLSASVGDRVTITCRASQSISSFLNWYQQKPGKAPKLLIYAASSLQSGVPSRFSGSGSGTDFTLTISSLQPEDSATYYCQQTYGYLHTFGCGTKLEIKR", "notes": "also called ALG.APV-210 (biotinylated for FACS detection)"}}, "key": {"[1]": {"biological_target": "T1, human 5T4 on cells (human, UniProt Q13641 32-420)", "T1 sequence": "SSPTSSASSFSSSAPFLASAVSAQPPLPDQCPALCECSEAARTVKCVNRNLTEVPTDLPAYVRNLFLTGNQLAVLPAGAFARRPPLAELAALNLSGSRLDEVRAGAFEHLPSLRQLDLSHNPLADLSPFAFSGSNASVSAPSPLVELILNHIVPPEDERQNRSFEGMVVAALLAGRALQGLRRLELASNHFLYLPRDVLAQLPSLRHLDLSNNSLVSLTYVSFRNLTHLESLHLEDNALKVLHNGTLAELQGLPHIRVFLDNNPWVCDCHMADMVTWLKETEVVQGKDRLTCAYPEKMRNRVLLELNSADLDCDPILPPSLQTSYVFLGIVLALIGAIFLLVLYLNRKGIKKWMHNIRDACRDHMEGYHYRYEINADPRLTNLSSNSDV", "assay": "cell-based or functional assay"}, "[2]": {"biological_target": "T2, cynomolgus CD137 on cells (cynomolgus macaque, UniProt A9YYE7 24-254)", "T2 construct": "whole, on cells; also called CHO-K1/cynomolgus CD137 cell line; cynomolgus monkey CD137 on CD3-stimulated primary CD8 T cells", "T2 sequence (A9YYE7 entry or part of it)": "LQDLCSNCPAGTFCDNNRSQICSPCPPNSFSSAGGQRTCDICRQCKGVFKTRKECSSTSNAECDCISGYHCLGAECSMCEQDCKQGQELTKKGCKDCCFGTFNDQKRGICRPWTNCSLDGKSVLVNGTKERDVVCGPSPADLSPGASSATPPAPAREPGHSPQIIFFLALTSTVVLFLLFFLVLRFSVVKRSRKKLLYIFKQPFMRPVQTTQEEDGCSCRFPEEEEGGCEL", "assay": "flow cytometry, MFI of the CD137 positive cells; cynomolgus CD8 T cells, MFI of CD137 positive cells", "procedure": "(§1) Following 48 h of incubation with or without CD3, human and cynomolgus PBMC were harvested, pooled, recounted and diluted in FACS buffer (PBS+0.5% BSA, 0.05% NaN₃) to a concentration of 5×10⁶ cells/mL. 50 μL (0.25×10⁶ cells) of cell solution was added to a 96-well FACS staining plate (Falcon #351190). Following 10 min of Fc-blocking in RT using Beriglobin (hIgG, 200 μg/mL), cells were washed in FACS buffer and then incubated for 1 h in 4° C. with 100 μL of the biotinylated ALG.APV-210 or negative control. […] Cells were analysed for ALG.APV-210 binding using flow cytometry by gating on viable, single cells expressing CD3 and CD8. MFI values (FMO subtracted) from 2 independent experiments as well as normalized pooled data from 2 experiments and EC₅₀-values were determined and plotted using GraphPad Prism 7, non-linear regression log (agonist) vs. normalized response—variable slope, n=6 donors/group.\nALG.APV-210 binding was also assessed by looking at the percentage of CD8 T cells bound by ALG.APV-210. […] The binding EC₅₀ values were also calculated on the MFI of the CD137 positive cells, and the results was an EC₅₀ of 0.17 nM for binding to human CD137 and 0.20 nM for cynomolgus monkey CD137."}, "[3]": {"biological_target": "T2, cynomolgus CD137 on cells", "assay": "flow cytometry, CD8 T cells gated from CD3-stimulated cynomolgus PBMC, biotinylated antibody + streptavidin-APC, exp 2, n=3 donors", "procedure": "as §1\nIn ELISA tests, the binding of biotinylated ALG.APV-210 to CD137 was similar to that of the non-biotinylated ALG.APV-210 (0.6 nM vs. 0.7 nM). The binding (EC₅₀) of the biotinylated ALG.APV-210 to its immunomodulatory target CD137 when expressed on activated primary human and cynomolgus CD8 T cells from CD3 stimulated PBMC was assessed and compared between the two species as well as to unstimulated cells. […]"}, "[4]": {"biological_target": "T2, cynomolgus CD137 on cells", "assay": "flow cytometry, percentage of CD8 T cells (gated from CD3-stimulated cynomolgus PBMC) bound by the biotinylated antibody, exp 1, n=3 donors", "procedure": "as §1, with “control. The antibodies were added in a serial dilution starting either at 5 μg/mL titrating down in a 12 step ⅓ dilution down to […] (exp 1) or 1 μg/mL titrating down in a 12 step ½ dilution down to 0.0005 μg/mL (exp 2).” for “control.”"}, "[5]": {"biological_target": "T3, human CD137 on cells (human, UniProt Q07011 24-255)", "T3 construct": "also called 4-1BB; TNFRSF9 (CHO-K1/human CD137 cells)", "T3 sequence (Q07011 24-255 limits assumed)": "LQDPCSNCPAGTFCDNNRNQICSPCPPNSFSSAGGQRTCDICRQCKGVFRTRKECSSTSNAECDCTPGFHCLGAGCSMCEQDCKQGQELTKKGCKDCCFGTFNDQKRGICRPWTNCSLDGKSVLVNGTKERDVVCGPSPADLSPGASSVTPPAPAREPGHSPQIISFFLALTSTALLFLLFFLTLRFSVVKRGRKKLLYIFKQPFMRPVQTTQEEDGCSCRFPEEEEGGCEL", "assay": "flow cytometry, normalized percentage of CD8 T cells (gated from CD3-stimulated human PBMC) bound by the biotinylated antibody, pooled data of 2 exp, n=6 donors", "procedure": "as §1, with “control. The antibodies were added in a serial dilution starting either at 5 μg/mL titrating down in a 12 step ⅓ dilution down to […] (exp 1) or 1 μg/mL titrating down in a 12 step ½ dilution down to 0.0005 μg/mL (exp 2).” for “control.”"}}, "data": [{"binder": "B1", "values": [{"measurement": "EC50 (nM), IFNγ release of human CD8 T cells with CT26-h5T4^high cells", "setting": "[1]", "result": 0.41, "unit": "nM"}, {"measurement": "EC50 (nM), IFNγ release of human CD8 T cells with CT26-h5T4^low cells", "setting": "[1]", "result": 0.24, "unit": "nM"}]}, {"binder": "B2", "values": [{"measurement": "EC50", "setting": "[2]", "result": 0.2, "unit": "nM"}, {"measurement": "EC50 (read off the curve)", "setting": "[3]", "result": "~0.2", "unit": "nM"}, {"measurement": "EC50 (read off the curve)", "setting": "[4]", "result": "~0.02", "unit": "nM"}, {"measurement": "EC50", "setting": "[5]", "result": 0.027, "unit": "nM"}]}]}
